Test results taken from patent publication US20110183888A1.
Square brackets hold non-standard residues; d marks the D form. Ends that are not written are not given here.

What was measured:
Experiment in all cases: cell-based or functional assay
JNK3, P53779 = molecular target: JNK3, P53779
JNK2, P45984 = molecular target: JNK2, P45984
JNK1, P45983 = molecular target: JNK1, P45983
Sequence of JNK1, P45983 (P45983 whole entry): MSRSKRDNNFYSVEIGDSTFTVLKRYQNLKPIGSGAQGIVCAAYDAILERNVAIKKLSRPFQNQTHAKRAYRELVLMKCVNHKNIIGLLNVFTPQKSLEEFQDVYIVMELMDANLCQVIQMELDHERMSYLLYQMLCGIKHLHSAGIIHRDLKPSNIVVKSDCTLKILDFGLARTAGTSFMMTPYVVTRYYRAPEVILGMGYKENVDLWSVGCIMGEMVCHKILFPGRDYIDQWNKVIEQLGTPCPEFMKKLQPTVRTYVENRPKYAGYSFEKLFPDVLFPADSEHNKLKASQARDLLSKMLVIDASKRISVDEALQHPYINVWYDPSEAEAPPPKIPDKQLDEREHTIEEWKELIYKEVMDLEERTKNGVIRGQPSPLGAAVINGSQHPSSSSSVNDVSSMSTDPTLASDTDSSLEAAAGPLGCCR

Sequence of JNK3, P53779 (P53779 whole entry, the tested form may be a part): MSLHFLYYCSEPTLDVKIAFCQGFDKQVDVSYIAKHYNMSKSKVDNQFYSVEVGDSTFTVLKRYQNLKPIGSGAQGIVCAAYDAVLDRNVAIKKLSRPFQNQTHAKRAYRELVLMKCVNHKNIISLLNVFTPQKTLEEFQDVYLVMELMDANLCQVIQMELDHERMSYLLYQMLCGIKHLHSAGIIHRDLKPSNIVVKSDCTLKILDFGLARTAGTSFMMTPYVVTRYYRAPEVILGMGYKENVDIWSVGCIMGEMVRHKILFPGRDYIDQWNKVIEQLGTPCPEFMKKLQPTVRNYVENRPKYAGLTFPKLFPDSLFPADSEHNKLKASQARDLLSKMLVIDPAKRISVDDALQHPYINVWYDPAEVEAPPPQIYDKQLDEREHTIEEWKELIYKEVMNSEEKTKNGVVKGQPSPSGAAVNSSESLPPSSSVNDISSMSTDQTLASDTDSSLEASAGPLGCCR

Binder	inhibition of GST-Jun (aa 1-73) phosphorylation by recombinant JNK; fold less efficient than L-TAT-IB1(s) (JNK3, P53779)	inhibition of GST-Jun (aa 1-73) phosphorylation by recombinant JNK; fold less efficient than L-TAT-IB1(s) (JNK2, P45984)	inhibition of GST-Jun (aa 1-73) phosphorylation by recombinant JNK; fold less efficient than L-TAT-IB1(s) (JNK1, P45983)	inhibition of c-Jun, ATF2 and Elk1 phosphorylation by JNKs (solid phase kinase assay, 33P, SDS-PAGE) (JNK3, P53779)	inhibition of c-Jun, ATF2 and Elk1 phosphorylation by JNKs (solid phase kinase assay, 33P, SDS-PAGE) (JNK2, P45984)	inhibition of c-Jun, ATF2 and Elk1 phosphorylation by JNKs (solid phase kinase assay, 33P, SDS-PAGE) (JNK1, P45983)
[dD][dQ][dS][dR][dP][dV][dQ][dP][dF][dL][dN][dL][dT][dT][dP][dR][dK][dP][dR][dP][dP][dR][dR][dR][dQ][dR][dR][dK][dK][dR]G [D-TAT-IB1(s)]	10 to 20 fold	10 to 20 fold	10 to 20 fold			
GRKKRRQRRRPPRPKRPTTLNLFPQVPRSQD [L-TAT-IB1(s)]				2.5 µM	2.5 µM	2.5 µM
